# In the DeepSol protein solubility set:
# Test: soluble on expression in E. coli; label from the status in PepcDB or PDB records
row,Sequence,soluble on expression in E. coli
1,GPGSMIFFFTLNLHDRSSLDLRVEFLFSCSDSSDSVAQHLRAIGMRGQLVQKGAATLYAGPKIASYTDACEAPVAMWEGAIPLKHERVLNGGVATRVVKKTYSHPPEIHPTNLSFNDIDSMYCLGNDELIKYFPEGVGGKMMQLMPPGHPRGFLYRKQSHLLNCFIDKLPFWQSKEKALRSLTNGRPGFIMDGPTGCGKSALLCQAVHYARSRDIITLYIANAKAWTHGEWCWPSTILPGFFDAPDAAREFLRTVAEANGSLLQAWELRVTPQDLPLEQGEKQPRSLYDLCEWGHRAVAPASIDRQSVCIKFFFDEIRAEKTKPIIIAVDGWNLFSHETHFRYPHPDFLRTLTTLNDGLTDVDLYPQELPRIPASRLSFVRGLNKLILSKQDPNKFFITCTTRDFKPFDGVSGFADVENDRFKNSLDEYAPYDPEKDSFFHPMQVENFTEYEYRAFLRFAINSGELAGLGWGPMWHYSSDFERKLYKIDFMSDRNPQRVVDHYHQELVWRYEYKRTRQKQYLLARRKMWQGAEVSNPLRNGK,not soluble
2,GPGSMITEGAATPCAEVPAIRRVRRTRSRFERLVRPEDVAPGEPTPSVEGWVLFLTNLPPNTTMDHITDLFVTREGEGLWNVREVKMPLDKNCECCGYALVELEKREAFEAALRDMEGMTLSFAEGEPPNGEDAWRLHIAPTFLGEKDDEEEELVAGGKRERE,soluble
3,GPGSMKLTFYRLLGCPYCAKVEAVLQYHDVPYEEVHVDPLSGKGLPDRRYQLAPQLYLAPLAKRNSGGAEAAATDSNGVYVVDSAEIVSRLSGPLKYAADIANPRISATRDWITNHFHGASFAITNNSFCDAYATYAYVTPSNYQNFLYHVVGSAALSVLSRYKIQPRLIAKMECADGPAAATPTGAPASTDSNGLWMLSEASRKALAATVRFGAVEEWLRAELQTFLQRRPADKVFHGGSSPDLADVEMYGVTRVVDQHPRLGAVVREGAFGEWQTAMREKLKANTGSVYA,not soluble
4,GPGSMKRSRRATQQEDVMRALKEGVQALSVSSALSTKDLVCRGDHARAIQQFLEDEKHHTMQIFGMPGTGKTATVNFALAQLVSRRGTKPTAVFLNGFVVQKSSDIYYTLHHHLTKARLGAVEPCPVAQCASRIEKRFRHGWGGKPPALCVIVVDEVDKILEKHSKGFFKVVDWLTLPYANCKLITISNSMELQLDAKTKSRLGVVNQLVFSSYGTQELREILVHRVGAIEPKLFADQAVNQLCTQTASHYGDVRRLLQSASAAICGVLMRMRDDAVDVSSTDGIITLREIHTVVRQIFHDRFVEFITTMRMPALFITVAVLGKETEALIRKREVDCRIPLERLLAITQQAQRKCMNVLRPINRAAFMEEIELLRQVSLIEVCIGEDRIPIRCVDELLDAKEEVFVLLLQPYQMVVDSCRLHDAFGATYGAALHL,not soluble
5,GPGSMLDEVLHSRVVQALLGALVMRELYSDAAVLLASVPPVLDTGGDTSSKDFGGIPSPLLVATRQDTLASLASFRQCVAARRWVEAVQIIDGSATAQSWAQATPLCAMVAFVRLEMDDPKAARALLLPYLASLPEPPSWEALSTAPVEHAQLWDNFTSHYVFSTTLLAKASFMSGSAYLNISAALLQRALRLSPSYAPARLFAEFVLSFEAQQQHVDAAVSASDYPKVLSVTAEMLRMPEVTRLVRAELYLVRTQAQWMRGQPLEVVHEASRCEQCDPQCALAFRLRADAFAMMSRETEAAADLAVAKHLNARVGALFDELQVQRSRRNAAQVEAKAKRNSVPAFKSFPSASAPLRSSATESFCGSTRRSGAQARMSTDTELSPSLRTHYDVLGVSSNASEAEIRRRYRRLTLQLHPDRLVGAAESDRRAALEAFQLLGNAYSVLSDTQLRATYDAGLPGLH,not soluble
6,GPGSMNAASYSGSGLASAATVEDVVKPDTIAAILAQLKEQDVRIGRLEAAVERSAINRTHFDILTMAGVTADFVCDEISFHNRSTVEFNALPCKVTLDYPCGELSILLDDADSDLSFLGVTLRVDCITDCHLLVDPDNCSVVVDTNTSKITDVTQLVLVGPTQEATRELYEALRDVVAQRRPPCSPAPDTTTTTTRNSSRALINRSEGEYESTLGGDGKLFSIEATPNNAGTTRNNVDASSSPRLQLSNTLPCDRTAHTPVDPRRPNTLPSFSANRKGTQQE,soluble
7,GPGSMNIQGMALHGHMKPVTMIKFNREGDLLFSTAKEPNVSVWYTKTGERLGTYDGHSAISACDVNNYSTLLVTGGMDFKAKLWCVETGEELANIMLRTPARAVGFSHDDNLLMVSTSRKMGQKSAVQLYNLPFLPPKDGYSIHPVNTVFNPCTEFVSENDDVTFAIWGPTNDTIYYSTSDGSVAILDVETMSTVCTHKPHEETINRISFDSNYYTLITASKDKTARLLDSRDLSVVQTYTSDVPVNDASISPRGDHVIIGGGMDAQDVTTQGGQTTFEVKFYHKVHEKQLGQVRCHFGTINSVCFFPDGRGFASGAFDGLVKLHRFDDKYSSTPGAIPLWTPEGI,not soluble
8,GPGSMNLELYVTLADLSRLPRGEPHDVKTLICRADTVRAPRPRELLSGRVFDISGQLLDTEYKGMPGETCVHVFFYDEWASAASFIERDDIVILKGFTVYDTPRVGDHDVEFPFFVTPIPHMAALRALQKGHKDDIMEVTVTADALETPNIRVMPKRLWGSYIANDMQCPRTNND,soluble
9,GPGSMPHSMDTTLFSDENRIDRGDSLLFHCVQLSQGGTDSHRYFFGCYFPRWRGFYMDEARELPGPLGYNVTRHFPAFPFDVYLKDDGEHFLTDDFQIGSIFTLGGPLNQRDDGQKRYKVVHCDDSQLRTRTGKTLAFIGNNVSGLLQQTHRVSGEAIDALKRIREAYIFNVGNGIPEVGIKAMGRHFRKVGSDGRRWMSYEGIVRFVKDSRNFNATLSFSDTQRTEEDVNTVATCIYNAFPKNEEECIDYDFFMDYVRGPMSQERKDAVWNIFRRMDYDRDGNLNIIDIQACYNTQDHPTCSVDHLFQSDKMLKGFLTIWDENERCGLVPYAEFLDYYNGVSAVLEDDKVFFDVLNNQWKLL,soluble
10,GPGSMPLTAAGMRTLMRQMQEVQEHPVDGVQVRPSDSMNEYHFDVDGPEGTPFAAGRFHVVLIFDEQYPEVPPKGFFRTKIFHPNISERGDICVNTLKRDWSPMLGLRHILVVIRCLLIEPNPESALNEEAGRLILEEYAAYERKAAMYTAINAARPNGVPRFTLPEVKAEKASGSVTACASAGAAADSGASATAAAAAASASSMANGGAPSTATRGLTLSEANCHPGSATAAEKAEKSKKKALRRI,soluble
11,GPGSMPPTHLLPTIDVSLRDKLSRFVESRGLLQMALEIATDDERRFDLAVQLKQLLLAHEIASAANVASHWKQVGDIALEQGYFEMAIESLEKCNDWSGLLLIYTSLNDMEAISRLGDRCLQRGQANLAFTCYHLTQRHAECVELLQKTGKTGDAAFYARTYYPSLIEDAVAKWRVSVASIPRVSQALASPAAYPNLFPSLRNVDLLPPKGSEADAPLNAQPPPPGASASLHGSCTAPTVADWFQPAAAAPQQLMHPPPLPDNVDSEPSGMQELADEEETWGED,soluble
12,GPGSMPSKRATRVQKLHEGTGDDNLPVFSIFIEKEGEGQYGRIDIEIFVNKVPKSCEIFLHSCPAALTGDKRVSKPSLVRQHRFLRLTNEGLQVGERPVSRLVSLSDIENEIGRVNHGIGVVSLCRSSNTFDESFFFCLTDNRTELESLDKRHTAFGRVVYGLELLFLLRDALIPYVKEGCVIEGSPYAISDILPKAAT,soluble
